Results reported in patent US20250262210A1 (TRUSTEES OF COLUMBIA UNIVERSITY IN THE CITY OF NEW YORK, published 2025).

What was measured:
Assay in all cases: IP/MS, LZTR1 wild type-FLAG, U87
[1] = biological target: PEAK1 (human, UniProt Q9H792 1-1746)
In short: (§1)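 Extracted peptides in 3% acetonitrile/0.1% formic acid ran on a 50 cm C18 column into an Orbitrap Fusion, with MaxQuant identification and spectral counting.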

[2] = biological target: CRYBG1 (human, UniProt Q9Y4K1 1-2131, limits assumed)
Chain of CRYBG1 (Q9Y4K1 whole entry): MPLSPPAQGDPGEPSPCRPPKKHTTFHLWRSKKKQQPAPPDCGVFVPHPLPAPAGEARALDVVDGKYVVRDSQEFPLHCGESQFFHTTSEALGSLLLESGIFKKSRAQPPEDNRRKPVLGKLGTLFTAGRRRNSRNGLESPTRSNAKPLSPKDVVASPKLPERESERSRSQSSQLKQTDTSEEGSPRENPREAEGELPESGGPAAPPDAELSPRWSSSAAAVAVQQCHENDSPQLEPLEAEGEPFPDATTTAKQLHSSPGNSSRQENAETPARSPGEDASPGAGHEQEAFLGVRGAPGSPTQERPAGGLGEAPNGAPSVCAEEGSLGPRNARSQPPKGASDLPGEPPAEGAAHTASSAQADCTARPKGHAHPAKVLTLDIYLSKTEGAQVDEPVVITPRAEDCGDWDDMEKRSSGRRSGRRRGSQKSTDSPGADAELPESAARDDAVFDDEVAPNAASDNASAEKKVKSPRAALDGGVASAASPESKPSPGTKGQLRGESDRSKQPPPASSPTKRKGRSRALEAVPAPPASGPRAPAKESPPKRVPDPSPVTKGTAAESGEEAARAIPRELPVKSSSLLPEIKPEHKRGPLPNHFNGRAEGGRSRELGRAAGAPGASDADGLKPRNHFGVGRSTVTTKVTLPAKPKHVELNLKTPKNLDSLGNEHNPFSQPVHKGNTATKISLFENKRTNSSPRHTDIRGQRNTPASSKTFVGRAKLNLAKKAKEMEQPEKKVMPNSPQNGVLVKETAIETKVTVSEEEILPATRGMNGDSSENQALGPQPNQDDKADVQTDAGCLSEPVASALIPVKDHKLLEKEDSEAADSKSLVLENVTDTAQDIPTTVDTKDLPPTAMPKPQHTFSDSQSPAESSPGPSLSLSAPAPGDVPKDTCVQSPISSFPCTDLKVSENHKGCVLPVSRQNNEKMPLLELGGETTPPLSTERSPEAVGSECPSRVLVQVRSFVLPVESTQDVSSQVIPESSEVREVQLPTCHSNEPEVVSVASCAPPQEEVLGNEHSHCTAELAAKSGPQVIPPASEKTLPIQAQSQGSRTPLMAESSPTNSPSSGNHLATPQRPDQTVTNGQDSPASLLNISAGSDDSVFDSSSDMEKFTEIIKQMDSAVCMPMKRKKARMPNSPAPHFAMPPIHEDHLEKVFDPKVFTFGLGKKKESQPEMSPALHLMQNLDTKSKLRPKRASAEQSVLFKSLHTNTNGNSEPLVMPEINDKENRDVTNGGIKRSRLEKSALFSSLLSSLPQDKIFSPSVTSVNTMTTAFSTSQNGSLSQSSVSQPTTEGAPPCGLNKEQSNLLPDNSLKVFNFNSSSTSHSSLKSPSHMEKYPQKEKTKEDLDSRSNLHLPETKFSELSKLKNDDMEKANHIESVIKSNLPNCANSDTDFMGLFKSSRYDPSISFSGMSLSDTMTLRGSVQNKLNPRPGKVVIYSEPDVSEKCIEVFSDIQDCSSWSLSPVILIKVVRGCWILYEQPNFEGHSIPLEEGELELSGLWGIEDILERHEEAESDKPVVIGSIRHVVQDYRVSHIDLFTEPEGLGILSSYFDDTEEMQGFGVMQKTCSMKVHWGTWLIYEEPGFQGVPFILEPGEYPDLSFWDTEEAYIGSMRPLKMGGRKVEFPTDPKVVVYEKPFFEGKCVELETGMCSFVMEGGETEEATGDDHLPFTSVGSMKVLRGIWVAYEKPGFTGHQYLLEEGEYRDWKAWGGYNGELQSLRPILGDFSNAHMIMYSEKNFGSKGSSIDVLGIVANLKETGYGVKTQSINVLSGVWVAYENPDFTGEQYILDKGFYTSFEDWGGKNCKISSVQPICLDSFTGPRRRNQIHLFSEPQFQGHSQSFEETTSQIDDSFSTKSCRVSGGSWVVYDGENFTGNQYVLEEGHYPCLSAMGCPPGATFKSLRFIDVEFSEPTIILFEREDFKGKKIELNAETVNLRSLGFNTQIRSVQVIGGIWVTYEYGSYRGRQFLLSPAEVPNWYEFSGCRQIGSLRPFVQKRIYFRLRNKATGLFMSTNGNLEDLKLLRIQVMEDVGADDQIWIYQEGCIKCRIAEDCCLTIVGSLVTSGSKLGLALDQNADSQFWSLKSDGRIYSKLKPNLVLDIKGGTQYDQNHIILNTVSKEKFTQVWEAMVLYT
In short: as §1

[3] = biological target: T1, MED24 (human, UniProt O75448 1-989, limits assumed)
T1 sequence (looked up): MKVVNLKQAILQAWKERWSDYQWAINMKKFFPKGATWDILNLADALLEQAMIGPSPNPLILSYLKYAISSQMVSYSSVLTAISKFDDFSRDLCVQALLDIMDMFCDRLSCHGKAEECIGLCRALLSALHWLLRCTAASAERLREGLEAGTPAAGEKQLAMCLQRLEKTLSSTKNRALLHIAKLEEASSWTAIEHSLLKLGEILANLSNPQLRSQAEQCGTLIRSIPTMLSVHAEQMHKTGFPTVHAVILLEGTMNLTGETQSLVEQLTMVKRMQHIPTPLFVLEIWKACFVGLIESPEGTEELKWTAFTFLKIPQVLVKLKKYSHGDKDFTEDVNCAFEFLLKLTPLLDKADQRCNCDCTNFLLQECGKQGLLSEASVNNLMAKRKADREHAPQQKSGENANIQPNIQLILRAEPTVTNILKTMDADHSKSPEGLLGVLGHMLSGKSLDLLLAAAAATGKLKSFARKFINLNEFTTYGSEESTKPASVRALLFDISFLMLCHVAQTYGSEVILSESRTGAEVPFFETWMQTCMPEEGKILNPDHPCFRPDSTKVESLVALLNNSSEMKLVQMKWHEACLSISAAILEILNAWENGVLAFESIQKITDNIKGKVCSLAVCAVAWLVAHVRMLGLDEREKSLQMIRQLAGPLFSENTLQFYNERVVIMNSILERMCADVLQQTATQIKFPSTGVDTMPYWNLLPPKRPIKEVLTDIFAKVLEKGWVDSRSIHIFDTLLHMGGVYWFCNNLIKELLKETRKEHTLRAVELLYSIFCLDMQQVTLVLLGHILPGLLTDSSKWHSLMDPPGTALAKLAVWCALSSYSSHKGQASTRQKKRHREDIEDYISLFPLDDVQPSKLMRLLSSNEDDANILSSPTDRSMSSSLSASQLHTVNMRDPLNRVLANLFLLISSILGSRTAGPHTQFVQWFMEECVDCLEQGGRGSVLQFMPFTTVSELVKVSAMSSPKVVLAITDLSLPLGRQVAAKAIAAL
In short: as §1

[4] = biological target: T2, SNX14 (human, UniProt Q9Y5W7 1-946, limits assumed)
T2 sequence (looked up): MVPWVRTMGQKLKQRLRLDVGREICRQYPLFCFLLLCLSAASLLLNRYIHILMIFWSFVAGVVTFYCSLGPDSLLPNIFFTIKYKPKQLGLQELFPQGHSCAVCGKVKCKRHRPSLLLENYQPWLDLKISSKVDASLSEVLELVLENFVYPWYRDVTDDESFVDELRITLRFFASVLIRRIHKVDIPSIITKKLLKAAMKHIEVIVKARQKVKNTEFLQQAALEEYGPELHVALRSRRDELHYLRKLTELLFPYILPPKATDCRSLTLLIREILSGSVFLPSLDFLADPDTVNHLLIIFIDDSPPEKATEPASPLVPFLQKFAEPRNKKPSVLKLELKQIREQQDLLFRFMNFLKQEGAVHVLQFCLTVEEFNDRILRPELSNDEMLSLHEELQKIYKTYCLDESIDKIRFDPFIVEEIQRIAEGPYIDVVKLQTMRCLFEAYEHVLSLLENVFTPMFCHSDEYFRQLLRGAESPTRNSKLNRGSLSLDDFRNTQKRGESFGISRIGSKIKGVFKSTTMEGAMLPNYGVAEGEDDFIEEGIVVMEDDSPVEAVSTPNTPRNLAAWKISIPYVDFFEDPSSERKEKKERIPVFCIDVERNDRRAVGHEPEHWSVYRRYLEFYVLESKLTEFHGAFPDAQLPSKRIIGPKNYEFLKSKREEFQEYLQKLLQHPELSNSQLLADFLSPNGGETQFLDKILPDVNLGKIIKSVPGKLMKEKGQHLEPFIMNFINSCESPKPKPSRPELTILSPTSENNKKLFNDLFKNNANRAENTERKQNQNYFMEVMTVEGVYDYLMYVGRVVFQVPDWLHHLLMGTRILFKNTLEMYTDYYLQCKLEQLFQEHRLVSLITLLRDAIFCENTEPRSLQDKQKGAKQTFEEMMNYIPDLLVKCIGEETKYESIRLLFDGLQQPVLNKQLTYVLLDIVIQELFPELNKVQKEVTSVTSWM
In short: as §1

[5] = biological target: URB1 (human, UniProt O60287 1-2271)
Chain of URB1 (O60287 whole entry): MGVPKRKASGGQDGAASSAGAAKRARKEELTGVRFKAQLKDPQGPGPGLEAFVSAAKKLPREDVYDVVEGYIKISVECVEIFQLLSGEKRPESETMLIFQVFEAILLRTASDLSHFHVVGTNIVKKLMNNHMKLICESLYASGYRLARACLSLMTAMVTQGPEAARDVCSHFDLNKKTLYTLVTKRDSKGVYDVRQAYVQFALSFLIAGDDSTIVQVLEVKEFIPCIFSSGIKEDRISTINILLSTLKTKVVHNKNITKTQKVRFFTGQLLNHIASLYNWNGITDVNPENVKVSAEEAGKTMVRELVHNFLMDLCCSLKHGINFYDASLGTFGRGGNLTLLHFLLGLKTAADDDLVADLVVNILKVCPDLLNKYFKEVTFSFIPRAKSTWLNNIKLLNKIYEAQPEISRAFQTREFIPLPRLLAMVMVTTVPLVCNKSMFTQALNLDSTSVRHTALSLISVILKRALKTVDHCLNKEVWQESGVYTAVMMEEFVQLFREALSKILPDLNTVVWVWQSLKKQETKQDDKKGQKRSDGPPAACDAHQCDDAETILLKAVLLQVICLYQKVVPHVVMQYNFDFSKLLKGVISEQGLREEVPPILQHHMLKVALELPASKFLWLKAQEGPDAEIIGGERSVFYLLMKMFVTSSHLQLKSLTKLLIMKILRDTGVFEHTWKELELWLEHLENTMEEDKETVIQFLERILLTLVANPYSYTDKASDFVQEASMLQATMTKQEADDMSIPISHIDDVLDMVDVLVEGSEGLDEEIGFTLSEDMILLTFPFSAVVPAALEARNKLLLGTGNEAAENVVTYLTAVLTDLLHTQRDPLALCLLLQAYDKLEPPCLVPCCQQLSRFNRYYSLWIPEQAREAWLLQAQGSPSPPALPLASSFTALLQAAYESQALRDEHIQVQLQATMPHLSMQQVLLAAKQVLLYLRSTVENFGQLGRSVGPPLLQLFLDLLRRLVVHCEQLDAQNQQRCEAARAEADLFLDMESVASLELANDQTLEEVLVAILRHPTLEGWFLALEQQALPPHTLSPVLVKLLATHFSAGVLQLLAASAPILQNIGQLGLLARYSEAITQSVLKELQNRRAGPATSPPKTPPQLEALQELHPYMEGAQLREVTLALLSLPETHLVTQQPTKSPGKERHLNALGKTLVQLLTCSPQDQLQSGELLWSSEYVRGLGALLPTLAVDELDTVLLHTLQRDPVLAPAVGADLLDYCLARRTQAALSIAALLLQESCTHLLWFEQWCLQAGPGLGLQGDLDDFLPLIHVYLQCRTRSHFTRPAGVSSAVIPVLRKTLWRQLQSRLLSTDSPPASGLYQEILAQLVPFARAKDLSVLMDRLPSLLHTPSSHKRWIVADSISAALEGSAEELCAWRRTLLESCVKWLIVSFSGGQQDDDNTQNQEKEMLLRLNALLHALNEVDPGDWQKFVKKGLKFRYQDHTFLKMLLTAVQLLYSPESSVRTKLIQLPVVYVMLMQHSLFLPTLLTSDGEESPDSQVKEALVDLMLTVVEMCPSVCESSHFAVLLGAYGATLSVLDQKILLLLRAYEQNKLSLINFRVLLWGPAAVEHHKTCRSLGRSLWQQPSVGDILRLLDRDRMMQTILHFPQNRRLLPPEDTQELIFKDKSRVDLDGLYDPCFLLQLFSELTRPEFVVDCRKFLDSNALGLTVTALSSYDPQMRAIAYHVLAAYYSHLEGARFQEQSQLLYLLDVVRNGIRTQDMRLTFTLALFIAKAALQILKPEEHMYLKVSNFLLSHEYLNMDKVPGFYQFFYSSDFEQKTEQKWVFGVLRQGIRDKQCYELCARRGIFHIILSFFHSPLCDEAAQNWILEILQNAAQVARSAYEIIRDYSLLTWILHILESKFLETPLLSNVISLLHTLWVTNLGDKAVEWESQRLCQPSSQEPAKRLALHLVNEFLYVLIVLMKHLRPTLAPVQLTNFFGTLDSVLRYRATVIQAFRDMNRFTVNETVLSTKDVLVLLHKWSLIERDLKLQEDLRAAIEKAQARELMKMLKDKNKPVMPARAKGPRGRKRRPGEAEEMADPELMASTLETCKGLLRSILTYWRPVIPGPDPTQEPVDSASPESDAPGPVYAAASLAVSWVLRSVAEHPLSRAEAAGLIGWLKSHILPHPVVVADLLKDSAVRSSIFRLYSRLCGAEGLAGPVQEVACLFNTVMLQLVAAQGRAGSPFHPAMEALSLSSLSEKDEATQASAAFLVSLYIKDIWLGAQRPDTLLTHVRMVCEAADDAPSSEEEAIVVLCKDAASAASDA
In short: as §1

binding result [1]: binds
binding result [2]: binds
binding result [3]: binds
binding result [4]: binds
binding result [5]: binds
B1: LZTR1-FLAG (other, human, UniProt Q8N653 1-840, looked up)
chain: MAGPGSTGGQIGAAALAGGARSKVAPSVDFDHSCSDSVEYLTLNFGPFETVHRWRRLPPCDEFVGARRSKHTVVAYKDAIYVFGGDNGKTMLNDLLRFDVKDCSWCRAFTTGTPPAPRYHHSAVVYGSSMFVFGGYTGDIYSNSNLKNKNDLFEYKFATGQWTEWKIEGRLPVARSAHGATVYSDKLWIFAGYDGNARLNDMWTIGLQDRELTCWEEVAQSGEIPPSCCNFPVAVCRDKMFVFSGQSGAKITNNLFQFEFKDKTWTRIPTEHLLRGSPPPPQRRYGHTMVAFDRHLYVFGGAADNTLPNELHCYDVDFQTWEVVQPSSDSEVGGAEVPERACASEEVPTLTYEERVGFKKSRDVFGLDFGTTSAKQPTQPASELPSGRLFHAAAVISDAMYIFGGTVDNNIRSGEMYRFQFSCYPKCTLHEDYGRLWESRQFCDVEFVLGEKEECVQGHVAIVTARSRWLRRKITQARERLAQKLEQEAAPVPREAPGVAAGGARPPLLHVAIREAEARPFEVLMQFLYTDKIKYPRKGHVEDVLLIMDVYKLALSFQLCRLEQLCRQYIEASVDLQNVLVVCESAARLQLSQLKEHCLNFVVKESHFNQVIMMKEFERLSSPLIVEIVRRKQQPPPRTPLDQPVDIGTSLIQDMKAYLEGAGAEFCDITLLLDGHPRPAHKAILAARSSYFEAMFRSFMPEDGQVNISIGEMVPSRQAFESMLRYIYYGEVNMPPEDSLYLFAAPYYYGFYNNRLQAYCKQNLEMNVTVQNVLQILEAADKTQALDMKRHCLHIIVHQFTKVSKLPTLRSLSQQLLLDIIDSLASHISDKQCAELGADI
notes: Expressed in HEK 293T, HeLa or U87 cells; used as cell lysate; also called LZTR1 wild type-FLAG; LZTR1 WT; not shown: FLAG tag at the C-terminus
